According to publication PMC9159944:

Assays:
[1] = biological target: Chimeric S. cerevisiae MCM^(Mcm3-YDF, ybbR-LD655-Mcm6) with a humanized Mcm3 subunit, loaded on origin DNA (S. cerevisiae | human) (UniProt P29469)
[2] = biological target: S. cerevisiae recombinant MCM^ybbR-LD655-Mcm6 (MCM2–MCM7 complex), loaded on origin DNA (S. cerevisiae) (UniProt P29469)

Chain of UniProt P29469 (P29469 whole entry, looked up, change not shown, tested part not stated): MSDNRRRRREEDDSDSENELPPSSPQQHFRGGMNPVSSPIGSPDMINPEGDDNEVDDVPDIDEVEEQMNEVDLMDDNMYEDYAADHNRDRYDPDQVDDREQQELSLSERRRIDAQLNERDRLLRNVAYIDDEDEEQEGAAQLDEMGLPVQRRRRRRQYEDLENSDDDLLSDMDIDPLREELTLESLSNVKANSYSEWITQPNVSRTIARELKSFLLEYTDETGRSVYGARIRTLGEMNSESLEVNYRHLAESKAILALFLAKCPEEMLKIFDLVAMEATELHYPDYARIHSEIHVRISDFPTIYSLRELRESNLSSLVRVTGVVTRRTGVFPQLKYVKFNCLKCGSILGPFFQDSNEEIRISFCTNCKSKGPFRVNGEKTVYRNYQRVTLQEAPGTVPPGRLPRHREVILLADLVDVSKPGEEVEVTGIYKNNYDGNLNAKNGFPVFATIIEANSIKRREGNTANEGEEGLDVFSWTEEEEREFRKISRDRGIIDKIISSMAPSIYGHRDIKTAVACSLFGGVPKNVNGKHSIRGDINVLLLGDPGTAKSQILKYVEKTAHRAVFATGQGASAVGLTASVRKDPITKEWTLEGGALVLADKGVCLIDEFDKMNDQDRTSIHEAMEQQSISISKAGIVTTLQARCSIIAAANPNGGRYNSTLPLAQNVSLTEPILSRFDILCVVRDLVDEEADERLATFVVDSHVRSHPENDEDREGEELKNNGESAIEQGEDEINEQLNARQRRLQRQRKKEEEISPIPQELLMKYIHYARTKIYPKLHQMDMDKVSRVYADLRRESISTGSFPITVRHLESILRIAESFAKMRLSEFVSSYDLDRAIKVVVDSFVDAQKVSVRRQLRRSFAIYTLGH

“Human recombinant cohesin^(STAG1, SCC1-Halo) (from UniProt Q14683 1-1233; Q9UQE7 1-1217; O60216 1-631; Q8WVM7 1-1258) (complex)” gave a fraction of cohesin pausing of the total observation time on encountering origin-bound MCM (single-molecule cohesin translocation assay on licensed DNA, 0.15 M NaCl) [1] of 43% and a fraction of cohesin pausing of the total observation time on encountering origin-bound MCM (single-molecule cohesin translocation assay on licensed DNA, 0.15 M NaCl) [2] of 6.4%.
